# Reference: the supplement of paper PMC10567573
# B1: TRIM15 (parent)
# chain: LSQMGAQSSGKILLCPLCQEEEQA
# B2: FLOT1 (parent)
# chain: QMAKKAEAFQLYQEAAQLDMLLEK
# Variants of: B1
# Assay: protein stability index of a GFP-peptide fusion (GPS, HEK-293T) (PSI 1-6); higher = more stable
# Conditions: c terminus: a fixed tail appended
# 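Also: lentivirally expressed fusions sorted by FACS into six bins by GFP to DsRed ratio, PSI derived from sequencing read proportions per bin multiplied by bin number.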
row,Variant,protein stability index
1,C18H,4.7
2,S2Y,3.63
3,L13P,3.97
4,G10Q,3.58
5,G10P,3.78
6,Q3Y,3.24
7,Q19I,3.18
8,L14A,5.21
9,L14H,3.36
10,L17D,4.97
11,E22T,3.46
12,K11R,3.03
13,A6R,3.17
14,A6P,3.8
15,A6M,3.3
16,E20K,3.58
17,E20V,2.79

# Variants of: B2
# Assay: as above
# Conditions: c terminus: a fixed tail appended
row,Variant,protein stability index
1,K4Y,2.25
2,K4E,2.56
3,K4F,1.68
4,K4D,2.94
5,K4G,2.15
6,K4N,2.38
7,K4C,1.86
8,K4Q,1.51
9,K4I,2.27
10,K4T,1.15
11,K4A,1.43
12,K4H,2.12
13,K4P,2.3
14,K4V,1.47
15,K4M,1.55
16,A8I,2.05
17,A8L,2.55
18,A8C,1.7
19,A8Y,1.03
20,A8W,1.91
21,A8S,1.49
22,A8H,1.42
23,A8T,1.83
24,A8M,2.88
25,A8F,3.96

row,Variant,protein stability index
1,A8P,1.98
2,A8Q,1.64
3,A8N,1.4
4,A8E,2.49
5,A8V,1.2
6,L11S,2.23
7,L11I,2.85
8,L11P,4.05
9,L11V,2.98
10,L11Y,1.81
11,L11C,1.92
12,L11A,2.03
13,L11H,3.32
14,L11G,1.76
15,L11D,1.82
16,L11M,1.59
17,L11N,2.1
18,L11F,2.15
19,L11K,3.17
20,L11E,3.48
21,Q10T,2.79
22,Q10E,2.49
23,Q10L,2.09
24,Q10G,1.72
25,Q10Y,2.59

row,Variant,protein stability index
1,Q10V,2.87
2,Q10N,2.03
3,Q10A,2.07
4,Q10R,1.87
5,Q10M,1.52
6,Q10S,2.06
7,Q10P,2.08
8,Q10K,1.32
9,Q10D,2.01
10,Q10H,2.03
11,Q10C,1.74
12,Q10F,1.28
13,Y12H,2.98
14,Y12T,4.17
15,Y12N,4.47
16,Y12I,2.62
17,Y12C,3.06
18,Y12L,2.03
19,Y12E,4.41
20,Y12F,1.67
21,Y12K,4.88
22,Y12P,5.08
23,Y12R,4.75
24,Y12S,4.55
25,Y12G,4.56

row,Variant,protein stability index
1,Y12A,4.22
2,Y12D,4.96
3,D19N,1.91
4,D19H,1.8
5,D19M,2.85
6,D19K,1.65
7,D19W,1.34
8,D19A,2.65
9,D19R,1.53
10,D19E,1.87
11,D19T,2.66
12,D19Q,1.83
13,D19I,1.5
14,D19S,1.29
15,D19G,1.48
16,D19V,3.13
17,D19F,1.69
18,D19C,2.13
19,D19P,3.95
20,D19Y,2.35
21,D19L,1.24
22,K5L,3.38
23,K5H,1.75
24,K5D,2.1
25,K5V,1.78

row,Variant,protein stability index
1,K5S,1.22
2,K5C,2.68
3,K5E,2.21
4,K5Q,1.59
5,K5G,1.92
6,K5F,2.8
7,K5N,1.42
8,K5R,2.3
9,K5P,2.83
10,K5I,2.49
11,K5T,2.01
12,A6K,2.43
13,A6T,1.38
14,A6R,1.52
15,A6N,3.7
16,A6H,1.99
17,A6E,1.92
18,A6P,2.37
19,A6Q,1.91
20,A6Y,1.53
21,A6C,1.53
22,A6V,1.75
23,A6D,1.57
24,A6M,1.32
25,A6W,2.21

row,Variant,protein stability index
1,A6F,1.99
2,F9N,1.82
3,F9D,3.04
4,F9K,2.63
5,F9L,2.37
6,F9S,2.01
7,F9P,2.08
8,F9I,1.88
9,F9C,1.41
10,F9A,2
11,F9E,3.65
12,F9W,1.86
13,F9T,2.11
14,F9H,2.26
15,F9Q,1
16,F9M,1.72
17,E14H,1.94
18,E14W,1.96
19,E14A,1.3
20,E14N,2.5
21,E14C,2.61
22,E14K,1.83
23,E14Q,1.36
24,E14S,2.03
25,E14G,2.58

row,Variant,protein stability index
1,E14I,3.03
2,E14L,1.97
3,E14P,3.12
4,E14Y,2.71
5,E14D,2.13
6,E14R,2.21
7,E14T,1.97
8,L18V,1.85
9,L18F,2.13
10,L18S,2.51
11,L18D,3.52
12,L18G,3.8
13,L18I,2.17
14,L18N,2.66
15,L18M,2.22
16,L18A,1.85
17,L18T,3.56
18,L18W,2.03
19,L18E,3.61
20,L18H,1.83
21,L18C,3.66
22,L18Y,1.46
23,L18P,3.9
24,L18K,2.9
25,Q13C,2.46

row,Variant,protein stability index
1,Q13M,3.5
2,Q13S,1.8
3,Q13R,2.81
4,Q13I,2.49
5,Q13N,3.82
6,Q13F,1.52
7,Q13E,2.92
8,Q13K,2.62
9,Q13D,4.08
10,Q13G,3.57
11,Q13H,3.6
12,Q13Y,1.96
13,Q13L,3.2
14,Q13P,3.87
15,Q13T,2.85
16,Q17I,1.72
17,Q17K,1.65
18,Q17L,1.58
19,Q17V,1.14
20,Q17D,3.81
21,Q17A,1.47
22,Q17T,1.19
23,Q17P,3.95
24,Q17S,1.88
25,Q17F,2.6

row,Variant,protein stability index
1,Q17C,1.71
2,Q17E,1.89
3,Q17W,4.61
4,Q17M,1.02
5,Q17R,2.46
6,M2T,1.76
7,M2Q,2.01
8,M2P,1.46
9,M2N,1.92
10,M2A,1.46
11,M2I,1.36
12,M2V,1.22
13,M2Y,2.1
14,M2E,2.07
15,M2S,1.14
16,M2G,2.78
17,M2L,1.84
18,M2D,2.45
19,M2H,1.57
20,M2C,1.61
21,M2K,2.4
22,M2F,1.78
23,A16V,1.1
24,A16Y,1.93
25,A16M,2.79

row,Variant,protein stability index
1,A16P,4.27
2,A16N,2.45
3,A16L,2.63
4,A16K,3.59
5,A16I,1.44
6,A16Q,3.31
7,A16W,1.35
8,A16G,4.14
9,A16D,3.24
10,A16T,1.85
11,A16S,3.68
12,A16R,3.45
13,A16E,3.98
14,A16H,3.3
15,E7S,4
16,E7I,1.4
17,E7T,1.36
18,E7H,2.24
19,E7M,1.64
20,E7R,1.22
21,E7V,1.91
22,E7A,2.46
23,E7Y,1.8
24,E7C,1.86
25,E7D,1.55

row,Variant,protein stability index
1,E7L,2.95
2,E7P,2.07
3,E7N,2.05
4,A15M,1.24
5,A15W,2.68
6,A15P,4.27
7,A15K,1.56
8,A15I,2.1
9,A15C,2.65
10,A15E,4.04
11,A15D,4.62
12,A15Q,1.44
13,A15N,2.32
14,A15Y,2.21
15,A15H,2.2
16,A15V,2.33
17,A15T,2.76
18,A15S,2.49
19,A15F,2.24
20,A15R,2.92
21,Q1T,2.27
22,Q1S,3.78
23,Q1L,2.5
24,Q1E,2.19
25,Q1H,2.21

row,Variant,protein stability index
1,Q1V,2.23
2,Q1D,1.9
3,Q1A,2.01
4,Q1N,1.8
5,Q1I,2.83
6,Q1R,1.69
7,Q1P,2.05
8,Q1Y,2.96
9,L21D,2.58
10,L21A,2.09
11,L21C,2.9
12,A3L,2.63
13,A3Q,1.93
14,A3I,1.88
15,A3W,1.21
16,A3H,1.93
17,A3F,1.16
18,A3N,3.51
19,A3Y,2.83
20,A3V,1.29
21,A3M,2.44
22,A3C,2.81
23,A3T,1.16
24,A3P,1.63
25,M20D,4.03

row,Variant,protein stability index
1,M20Y,2.08
2,M20G,3.94
3,M20I,3.46
4,M20K,2.55
5,M20P,4.52
6,M20A,2.75
7,M20S,3.69
8,M20N,2.47
9,M20L,1.85
10,M20Q,3.1
11,M20C,1.97
12,M20V,2.38
13,M20T,3.22
14,M20H,2.94
15,M20R,2.98
16,M20E,3.76
17,M20F,2.25
